Experiment [1] deals with T1, human CD47ECD His tagged protein (human, UniProt Q08722 19-139, limits assumed).
T1 construct: extracellular domain; also called HuCD47ECD 8xHis; monovalent CD47ECD His tagged protein
Description: SPR (Biacore 3000); antibody captured on anti-human Fc chip, monovalent HuCD47ECD 8xHis injected; column Affinity (nM). The procedure: (§1) The binding affinities of anti-human CD47 mouse/human chimeric antibodies to human CD47 protein were determined with BIACORE™ using a capture method. The anti-human CD47 mouse/human chimeric antibodies were captured using anti-human Fc antibody coated on a CMS chip. Serial dilutions of human CD47ECD mouse Fc protein starting from 400 nM were injected over captured antibody for 1 mins at a flow rate of […]. Alternatively, serial dilutions of human CD47ECD His tagged protein starting from 800 nM were injected over captured antibody for 1 min at a flow rate of […]. The antigens were allowed to dissociate for 900s. All the experiments were carried out on a Biacore 3000. Data analysis was carried out using Biacore 3000 evaluation software.
In general terms: In SPR one partner is held on a chip, and binding of the other changes the refractive index at the surface.

In experiment [2] the target is T2, human CD47ECD mouse Fc protein (human, UniProt Q08722 19-139, limits assumed).
T2 construct: extracellular domain; also called HuCD47ECD muFc; bivalent CD47ECD muFc protein; not shown: mouse Fc
Nature of the experiment: SPR (Biacore 3000); antibody captured on anti-human Fc chip, bivalent HuCD47ECD muFc injected; column Affinity (nM). The procedure:
as §1

Experiment [3] concerns the target T2, human CD47ECD mouse Fc protein. Nature of the experiment: SPR (Biacore 3000); antibody captured on anti-human Fc chip, bivalent HuCD47ECD muFc injected. The procedure: as §1
In experiment [4] the target is human CD47 (full length) expressed on cells (human) (UniProt Q08722). Description: FACS ligand blocking on CD47-CHO cells; blocked ligand FITC human SIRPa huFc at 4 ug/ml.
The target in experiment [5] is T1, human CD47ECD His tagged protein. Nature of the experiment: SPR (Biacore 3000); antibody captured on anti-human Fc chip, monovalent HuCD47ECD 8xHis injected. How it is done: as §1
The target is the same in experiment [6]. Nature of the experiment: ELISA competition; plate-bound human CD47ECD His, competitor ligand SIRPα huFc 1 ug/ml. The procedure:
(§2) To evaluate the blocking ability of anti-human CD47 mouse mAb on recombinant human CD47 binding to its ligand SIRPα, an ELISA based ligand blocking assay was employed. Briefly, microtiter plates were coated with human CD47ECD His tagged protein at 1 μg/ml in PBS, 100 μl well at 4° C. overnight, then blocked with 100 μl/well of 2% BSA. […] The plates were washed with PBS/Tween and then incubated with anti-human IgG-HRP for 1 hour at 37° C. After washing, the plates were developed with TMB substrate and analyzed by spectrophotometer at OD 450 nm.
For orientation: An ELISA detects its analyte on a solid surface through an enzyme-linked reagent.

Experiment [7] concerns the target T3, human CD47ECD human Fc protein (human, UniProt Q08722 19-139, limits assumed).
T3 construct: extracellular domain; also called human CD47ECD huFc; human CD47huFc; not shown: human Fc
Nature of the experiment: ELISA, plate coated with human CD47ECD huFc at 1 ug/ml, goat anti-mouse IgG-HRP, OD450. From the text:
After washing, the plates were developed with TMB substrate and analyzed by spectrophotometer at OD 450 nm.

Experiment [8] deals with T1, human CD47ECD His tagged protein. Description: ELISA ligand blocking, plate coated with human CD47 ECD His tagged protein at 1 ug/ml; blocked ligand human SIRPaECD huFc at 1 ug/ml, anti-human IgG-HRP. The procedure:
as §2

The target in experiment [9] is T4, His tagged mouse CD47 protein (mouse, UniProt Q61735 19-140, limits assumed).
T4 construct: Bought protein
T4 sequence (looked up): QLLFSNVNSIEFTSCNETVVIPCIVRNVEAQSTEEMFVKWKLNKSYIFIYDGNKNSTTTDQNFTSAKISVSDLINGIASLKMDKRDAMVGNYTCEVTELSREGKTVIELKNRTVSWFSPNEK
Nature of the experiment: ELISA, plate coated with His tagged mouse CD47 at 2 ug/ml, goat anti-mouse IgG-HRP, OD450. How it is done:
To evaluate the binding cross-reactivity of anti-human CD47 antibodies to cynomolgus and mouse CD47, an ELISA based binding assay was used. Briefly, microtiter plates were coated with His tagged cynomolgus monkey CD47 or His tagged mouse CD47 protein (purchase from Acro Biosystem). Both proteins were coated at 2 μg/ml in PBS, 100 μl/well at 4° C. overnight. The plates were then blocked with 100 μl/well of 2% BSA. Ten-fold dilutions of mouse anti-human CD47 hybridoma antibodies were added to each well starting at 70 ug/ml and incubated for 1-2 hours at RT. The plates were washed with PBS/Tween and then incubate with goat-anti-mouse IgG antibody conjugated with Horse Radish Peroxidase (HRP) for 1 hour at RT. After washing, the plates were developed with TMB substrate and analyzed by spectrophotometer at OD 450 nm.

Experiment [10] has as its target T5, human CD47 (full length) expressed on cells (human, UniProt Q08722 19-323).
T5 construct: whole, on cells; also called human CD47/CHO cells; CHO/CD47 cells
Description: FACS ligand blocking on CD47-CHO cells; blocked ligand FITC human SIRPa huFc at 4 ug/ml. How it is done:
To evaluate the blocking effect of anti-human CD47 mouse/human chimeric antibodies to human full length CD47 expressed on CHO cells, the FACS-based ligand blocking assay was used. CD47-CHO cells were first incubated with 3 fold serially diluted mouse/human chimeric mAbs starting at 100 μg/ml on ice for 30 min. […] The cells were then washed 3 times with the FACS buffer and the mean florescence intensities (MFI) of FITC were evaluated by FACS Caliber. […] AB6.12 is a humanized version of anti-CD47 antibody 2A1 from Celgene and was used as a reference antibody in the assay.

The target of experiment [11] is T5, human CD47 (full length) expressed on …. Description: FACS ligand blocking on CD47-CHO cells; blocked ligand FITC human SIRPa huFc at 5 ug/ml. The procedure: The cells were then washed 3 times with the FACS buffer and the mean florescence intensities (MFI) of FITC were evaluated by FACS Caliber.
Experiment [12] has as its target T1, human CD47ECD His tagged protein. Nature of the experiment: ELISA ligand blocking, plate coated with human CD47 ECD His tagged protein at 1 ug/ml; blocked ligand human SIRPaECD muFc at 1 ug/ml, anti-mouse IgG-HRP. How it is done:
Briefly, microtiter plates were coated with human CD47ECD His tagged protein at 1 μg/ml in PBS, 100 μl well at 4° C. overnight, then blocked with 100 μl/well of 2% BSA. […] The plates were washed with PBS/Tween and then incubated with anti-mouse IgG-HRP for 1 hour at 37° C. After washing, the plates were developed with TMB substrate and analyzed by spectrophotometer at OD 450 nm.

Numbering of substitutions follows the chain as printed. Where “and” joins values, the source holds several entries; their conditions need not be identical. Identical values can stand only once.

T2 sequence (Q08722 19-139 limits assumed): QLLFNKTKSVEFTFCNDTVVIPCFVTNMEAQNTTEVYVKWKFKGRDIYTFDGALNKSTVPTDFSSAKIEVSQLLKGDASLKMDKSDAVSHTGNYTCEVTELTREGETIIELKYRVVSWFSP
T1 sequence (Q08722 19-139 limits assumed): as above
T5 sequence (Q08722 19-323): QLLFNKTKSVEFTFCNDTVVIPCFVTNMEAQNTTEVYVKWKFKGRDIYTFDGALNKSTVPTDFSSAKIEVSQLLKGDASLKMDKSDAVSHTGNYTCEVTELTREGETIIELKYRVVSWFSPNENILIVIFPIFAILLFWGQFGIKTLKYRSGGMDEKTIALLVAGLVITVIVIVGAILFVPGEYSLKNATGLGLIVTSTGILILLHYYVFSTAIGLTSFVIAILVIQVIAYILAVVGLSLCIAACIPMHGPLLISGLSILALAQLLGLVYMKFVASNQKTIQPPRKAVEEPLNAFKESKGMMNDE
Chain of human CD47 (full length) expressed on cells (human) (Q08722 19-323): as above
T3 sequence (Q08722 19-139 limits assumed): as the sequence (Q08722 19-139 limits assumed) above

B1: AB6.12, a humanized version of anti-CD47 antibody 2A1 from Celgene (antibody, from another filing, V domains shown)
VH: QMQLVQSGAEVKKTGSSVKVSCKASGFNIKDYYLHWVRQAPGQALEWMGWIDPDQGDTEYAQKFQDRVTITRDRSMSTAYMELSSLRSEDTAMYYCNAAYGSSSYPMDYWGQGTTVTVSS
VL: NIQMTQSPSAMSASVGDRVTITCKASQDIHRYLSWFQQKPGKVPKHLIYRANRLVSGVPSRFSGSGSGTEFTLTISSLQPEDFATYYCLQYDEFPYTFGGGTKVEIKR
What is called koff is a measure of how fast the partners let go of each other. High values mean a short-lived complex, low ones a long-lived complex. For orientation: kon means a measure of how fast the partners come together. A low value points to slower complex formation. A word on the IC50: it is the midpoint of a concentration-inhibition curve. With B1, the Kd is 0.798 nM in [1], 0.0479 nM in experiment [2], 0.0479 nM in [3] and 0.798 nM in experiment [5]. The dissociation rate constant (koff) in experiment [3] came to 2.25e-05 s⁻¹; in experiment [5], 0.000703 s⁻¹. In addition, the association rate constant (kon) in experiment [3] came to 469000 M⁻¹ s⁻¹; in experiment [5], 881000 M⁻¹ s⁻¹. Besides, the IC50 in experiment [4] came to 8.6 µg/mL.

B2: D36S4 mouse anti-human CD47 hybridoma antibody (antibody, V domains shown)
VH: EVKLEESGGGLVQPGGSMKLSCVASGFTFSRYWMNWVRQSPDKGLEWVAQIRLKSDNYETHYAESVKGRFTISRDDSKSSVYLQMNNLRAEDTGIYYCIEEGGYYVPFAYWGQGTLVTVSA
VL: DIVVSQSPSSLAVSAGEKVTMSCKSSQSLFKSRTRKNYLAWYQQRPGQSPKLLIYWASIRESGVPDRFTGSGSGTEFTLTISSVQAEDLAVYYCKQSYYLLTFGAGTKLELK
notes: Mouse hybridoma IgG
As a reminder, the EC50 (read off the curve) is the concentration at which the effect is half-maximal. As to B2, the IC50 in [6] was found to be 0.59 nM; in experiment [8] it was 0.09 µg/mL. Besides, the concentration for a half-maximal effect (EC50 (read off the curve)) in [7] was roughly 0.02 µg/mL. In experiment [9], the binding result is recorded as “binds”.

B3: D36S4 mouse/human chimeric anti-human CD47 antibody (antibody, V domains shown)
VH: B2 VH
VL: B2 VL
notes: also called chimeric D36S4 antibody; D36S4 H/L
Take B3: the Kd in experiment [1] was found to be 0.702 nM; in [2], 0.0194 nM; in experiment [3], 0.0194 nM; in [5] it was 0.702 nM. In addition, the koff in experiment [3] came out at 1.18e-05 s⁻¹; in experiment [5], 0.000236 s⁻¹. For the same molecule, the kon in experiment [3] came out at 605000 M⁻¹ s⁻¹; in experiment [5], 337000 M⁻¹ s⁻¹. Also, the IC50 was 5.1 µg/mL in experiment [10], 1.6 µg/mL in experiment [11] and 0.07 µg/mL in experiment [12].

B4: D28S1 mouse anti-human CD47 hybridoma antibody (antibody, V domains shown)
VH: EVQLVESGGDLVKPGGSLKLSCAASGFTFTSYGMSWVRQTPDKRLEWVATINTGGSYTYYPDSVKGRFTISRDNAKNTLYLQMSSLKSEDTAMYYCARHTIKSLMDYWGQGTSVTVSS
VL: ETTVTQSPASLSMAIGEKVTIRCITSTDIDDDMNWYQQKPGEPPKLLISEGNTLRPGVPSRFSSSGYGTDFVFIIENMFSEDVADYYCLQSDNLPYTFGSGTKLEIK
notes: Mouse hybridoma IgG
On to B4, for which the IC50 in experiment [6] is 1 nM; in experiment [8], 0.15 µg/mL and 1.02 nM.

B5: D125S3 (antibody, V domains shown)
VH: EVQLVESGGDLVKPGGSLNLSCAASGFTFSDYGMSWVRQTPDMRLEWVATISKYGTYTSYPDSVKGRFTISRSNAKNTLYLQMSSLKSADTALYYCARRFFGNYNYWYFDVWGAGTTVTVSS
VL: DIVLTQSPASLAVSLGQRATFSCRASESVDEFGISYIHWYKKSPGQPPKLLIYRASTLESGISARFSGSGSGTDFTLTINPVETDDVATYYCQQSNQDPLTFGAGTKLELK
notes: Mouse hybridoma form; the mouse/human chimeric form with the same V regions is m18; also called D125S3 mouse anti-human CD47 hybridoma antibody
In the case of B5, the IC50 in experiment [8] was 0.25 µg/mL and 1.69 nM. The binding result in experiment [9] is reported as “no binding (tested: 70 ug/ml)”.

B6: D8S1 (antibody, V domains shown)
VH: EVQLQQSVAELVRPGASVKLSCTVSGFNIKNTYIYWVKQRPEQGLEWIGRIDPANGNTKDAPKFQGKATMTADTSSNTAYLQLSSLTSEDTAIYYCARGYGSGFAYWGQGTLVTVSA
VL: DIQMTQTTSSLSASLGDRVTISCRASQDISNHLNWYQQKPDGIVKLLIYYTSRLHSGVPSRFSGSGSGTDYSLTISNLEQEDIATYFCQQGSTLPFTFGSGTKLEIK
notes: Mouse hybridoma form; the mouse/human chimeric form with the same V regions is m13; also called D8S1 mouse anti-human CD47 hybridoma antibody
Take B6: the half-maximal inhibitory concentration (IC50) in [8] is 0.27 µg/mL and 1.77 nM. The binding result in [9] was “no binding (tested: 70 ug/ml)”.

B7: D96S1 mouse anti-human CD47 hybridoma antibody (antibody, V domains shown)
VH: EVQLQQSGAELVKPGASVKLSCTASGFNIKDTYIHWVKQRPEQGLEWIGRIDPANGNIKSDPKFQGKATVTADTSSNTAYLQLSSLTSEDTAVYYCARSYGSSFASWGQGTLVTVSP
VL: B6 VL with I43A, L94F, F96Y, S100G
notes: Mouse hybridoma IgG
For B7, in [8], the IC50 is 1.94 µg/mL and 12.9 nM. Moreover, the binding result in experiment [9] is “no binding (tested: 70 ug/ml)”.

B8: D41S2 (antibody, V domains shown)
VH: B6 VH with V24P, K38R
VL: B6 VL with I43T
notes: Mouse hybridoma form; the mouse/human chimeric form with the same V regions is m16; also called D41S2 mouse anti-human CD47 hybridoma antibody
Regarding B8, in experiment [8], the IC50 is 0.16 µg/mL and 1.06 nM. The binding result in experiment [9] is given as “no binding (tested: 70 ug/ml)”.
